Laboratory results reported in patent US20050026834A1.
Values joined by “and” are separate entries in the source; they are usually repeats but may differ in a detail not shown here. Identical values can stand only once.

Biological target: T1, rabbit GH receptor (rabbit) (UniProt P19941)
T1 sequence (looked up): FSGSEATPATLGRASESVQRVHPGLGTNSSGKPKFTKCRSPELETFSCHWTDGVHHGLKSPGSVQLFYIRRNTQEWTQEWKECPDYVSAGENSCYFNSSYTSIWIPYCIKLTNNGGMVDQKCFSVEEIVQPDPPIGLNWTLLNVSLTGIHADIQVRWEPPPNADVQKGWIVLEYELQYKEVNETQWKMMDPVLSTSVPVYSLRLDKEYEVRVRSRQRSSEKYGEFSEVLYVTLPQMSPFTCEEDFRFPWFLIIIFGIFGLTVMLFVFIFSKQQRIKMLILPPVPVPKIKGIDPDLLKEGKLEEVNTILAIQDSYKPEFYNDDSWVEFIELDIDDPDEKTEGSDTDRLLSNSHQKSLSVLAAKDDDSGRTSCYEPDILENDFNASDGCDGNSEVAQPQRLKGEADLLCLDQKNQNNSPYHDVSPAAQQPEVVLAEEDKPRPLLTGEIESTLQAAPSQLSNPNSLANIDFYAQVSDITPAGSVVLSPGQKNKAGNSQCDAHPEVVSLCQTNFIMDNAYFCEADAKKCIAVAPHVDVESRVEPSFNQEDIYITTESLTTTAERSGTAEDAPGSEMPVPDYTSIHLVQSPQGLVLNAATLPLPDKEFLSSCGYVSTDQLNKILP
Test: cell-based or functional assay

Substance | Mean EC50 (ng/ml), proliferation of GH-R4 cells (MTS) [ng/mL] | further results
PEG-S144C hGH (mono-PEGylated S144C) (from UniProt P01241 27-217) (ligand) | – | EC50 of single experiments, cell proliferation assay (Example 1): 40 ng/mL and 45 ng/mL
hGH cysteine mutein T3C, disulfide-linked homodimer (from UniProt P01241 27-217) (ligand) | 1.4 | –
hGH cysteine mutein S144C (from UniProt P01241 27-217) (ligand) | 1.6 | –
hGH cysteine mutein T148C (from UniProt P01241 27-217) (ligand) | – | Mean EC50 (ng/ml), proliferation of GH-R4 cells (MTS); T148C-lotA: 0.5 ng/mL; Mean EC50 (ng/ml), proliferation of GH-R4 cells (MTS); T148C-lotB: 2.5 ng/mL
wild-type rhGH (secreted from E. coli with the stII signal sequence) (from UniProt P01241 27-217) (ligand) | 0.8 | –
